Assays:
[1] = target: Tse6_(265-CT) (P. aeruginosa) (UniProt Q9I739); test: ITC
[2] = target: C-terminally octa-histidine-tagged Tse6 (full-length toxin) (P. aeruginosa, UniProt Q9I739 1-430); test: negative-stain electron microscopy
[3] = target: EF-Tu^EC•GDP (E. coli EF-Tu, GDP-bound), purified for ITC (E. coli, UniProt P0CE47 2-393); test: ITC
[4] = target: EF-Tu^PA•GDP (P. aeruginosa EF-Tu, GDP-bound), purified (P. aeruginosa, UniProt P09591 1-397); test: ITC
Sequence of EF-Tu^PA•GDP (P. aeruginosa EF-Tu, GDP-bound), purified (P09591 whole entry): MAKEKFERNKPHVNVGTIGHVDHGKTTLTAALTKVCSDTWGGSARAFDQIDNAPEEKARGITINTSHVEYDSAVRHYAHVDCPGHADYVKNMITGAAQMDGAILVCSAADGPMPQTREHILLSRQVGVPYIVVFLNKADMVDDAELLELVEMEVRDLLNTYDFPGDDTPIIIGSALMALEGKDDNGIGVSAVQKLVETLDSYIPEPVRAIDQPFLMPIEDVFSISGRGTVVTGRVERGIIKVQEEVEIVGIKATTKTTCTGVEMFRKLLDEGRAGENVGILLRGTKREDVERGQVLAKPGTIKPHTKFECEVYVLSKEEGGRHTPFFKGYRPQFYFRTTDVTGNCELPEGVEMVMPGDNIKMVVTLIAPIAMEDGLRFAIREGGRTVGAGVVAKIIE

Sequence of EF-Tu^EC•GDP (E. coli EF-Tu, GDP-bound), purified for ITC (P0CE47 2-393): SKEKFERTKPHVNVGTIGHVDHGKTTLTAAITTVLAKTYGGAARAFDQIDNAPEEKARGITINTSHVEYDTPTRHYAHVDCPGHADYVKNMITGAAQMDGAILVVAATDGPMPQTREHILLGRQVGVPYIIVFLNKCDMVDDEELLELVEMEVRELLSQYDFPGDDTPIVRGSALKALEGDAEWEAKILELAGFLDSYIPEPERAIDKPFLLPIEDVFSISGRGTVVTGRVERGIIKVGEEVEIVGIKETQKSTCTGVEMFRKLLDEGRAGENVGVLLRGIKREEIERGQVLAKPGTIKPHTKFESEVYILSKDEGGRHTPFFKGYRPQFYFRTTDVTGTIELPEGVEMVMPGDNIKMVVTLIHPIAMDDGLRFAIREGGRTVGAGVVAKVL

“EF-Tu with the antibiotic Aurodox (locked into its GTP-bound conformation) (from UniProt P09591 1-397) (natural protein)” gave a fold reduction of the affinity with Aurodox against EF-Tu•GDP [1] of 10 fold.

B1: EagT6, recombinant, in the purified Tse6 complex (natural protein)
chain: MTLYRLHEADLEIPDAWQDQSINIFKLPASGPAREASFVISRDASQGDAPFADYVARQLENAEKQLPGFKLHKRWDINIHGHAAVLLDYQWQREGRDLMLRQVFIERRPAVLITTLTTTPADLPHHEPAWKQAMQTLVPRPTPS
B1: binds [2].

B2: Tse6_(265-CT) (domain or fragment)
chain: QRRAYLNNKFGRSGNLDHDINYRGNRETAAKFFKSKDIDPADAESYMNGLDFNHPVRVETLAPGKNLWQYQSPGAPQGNWYTLSPRVQPTELGINPMGTNRAANTIEPKVLNSYRTTQKVEVLRSTAAPTDDFWSVKGQSYPAKGGAQQLFSNEKGSFGLLPREGS
With B2 the Kd [3] was 81 nM and the Kd [4] was 23 nM.

— article PMC4624332 (Cell, 2015)
